Assays:
[1] = biological target: Microtubule polymerized from MAP-free bovine brain tubulin (GMPCPP- and taxol-stabilized, with biotinylated ends) (bovine) (UniProt Q6B856); assay: optical trapping (single-filament interaction forces); one vimentin IF and one microtubule each held between a pair of streptavidin beads; crossed perpendicularly, IF moved vertically (y-direction) at 0.55 μm/s; pure CB (1 mM EGTA, 2 mM MgCl2, 25 mM PIPES, 60 mM KCl, 2 mM sodium phosphate, pH 7.5, 0.01 mM taxol, oxygen scavenger, 20 mM DTT); 57 filament pairs
[2] = biological target: Microtubule polymerized from MAP-free bovine brain tubulin (GMPCPP- and taxol-stabilized, with biotinylated ends) (bovine) (UniProt Q6B856); assay: optical trapping (single-filament interaction forces); as a1 (perpendicular, vertical movement) in CB with 0.1% (w/v) Triton-X 100; 38 filament pairs
[3] = biological target: Microtubule polymerized from MAP-free bovine brain tubulin (GMPCPP- and taxol-stabilized, with biotinylated ends) (bovine) (UniProt Q6B856); assay: optical trapping (single-filament interaction forces); pure CB; microtubule turned by 45°, IF moved vertically; 49 filament pairs
[4] = biological target: Microtubule polymerized from MAP-free bovine brain tubulin (GMPCPP- and taxol-stabilized, with biotinylated ends) (bovine) (UniProt Q6B856); assay: optical trapping (single-filament interaction forces); as a1 (perpendicular, vertical movement) in CB with a total of 20 mM magnesium (18 mM MgCl2 added); 36 filament pairs
[5] = biological target: Microtubule polymerized from MAP-free bovine brain tubulin (GMPCPP- and taxol-stabilized, with biotinylated ends) (bovine) (UniProt Q6B856); assay: optical trapping (single-filament interaction forces); pure CB; perpendicular configuration, IF moved horizontally (x-direction) along the microtubule at 0.55 μm/s; 43 filament pairs

Chain of UniProt Q6B856 (Q6B856 whole entry, looked up): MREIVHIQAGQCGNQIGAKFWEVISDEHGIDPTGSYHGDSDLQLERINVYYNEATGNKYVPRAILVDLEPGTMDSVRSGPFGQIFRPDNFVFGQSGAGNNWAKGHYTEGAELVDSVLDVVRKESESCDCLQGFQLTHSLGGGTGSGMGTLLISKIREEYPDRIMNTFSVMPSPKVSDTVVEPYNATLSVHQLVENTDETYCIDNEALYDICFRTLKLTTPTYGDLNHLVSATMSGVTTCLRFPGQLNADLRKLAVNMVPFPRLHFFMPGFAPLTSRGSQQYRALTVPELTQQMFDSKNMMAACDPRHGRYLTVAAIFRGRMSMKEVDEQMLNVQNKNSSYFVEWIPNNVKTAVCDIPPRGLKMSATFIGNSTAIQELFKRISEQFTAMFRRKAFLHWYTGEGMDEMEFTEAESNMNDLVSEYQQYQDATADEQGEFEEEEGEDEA

Vimentin intermediate filament, assembled from vimentin C328N with two additional glycines and one additional cysteine at the C-terminus (natural protein)
effective binding rate r b,eff (interactions larger than 1 pN per unbound time) [1]: 0.011 s⁻¹ | probability of binding p IF-MT per pair of vimentin unit-length filament and tubulin dimer ([1]; scale: per pair of vimentin unit-length filament and tubulin dimer): 0.00061 | effective binding rate r b,eff (interactions larger than 1 pN per unbound time) [2]: 0.0056 s⁻¹ | effective binding rate r b,eff (interactions larger than 1 pN per unbound time) [3]: 0.016 s⁻¹ | effective binding rate r b,eff (interactions larger than 1 pN per unbound time) [4]: 0.013 s⁻¹ | effective binding rate r b,eff (interactions larger than 1 pN per unbound time) [5]: 0.024 s⁻¹

From publication PMC8213705
